Test results as given in patent US20260184782A1 (TWIST BIOSCIENCE, published 2026).
Where two headings read alike, the source gives them in different places.

T1: TIGIT (UniProt Q495A1 22-141, limits assumed)
T1 construct: also called T cell immunoreceptor with Ig and ITIM domains; hTIGIT
T1 sequence (looked up): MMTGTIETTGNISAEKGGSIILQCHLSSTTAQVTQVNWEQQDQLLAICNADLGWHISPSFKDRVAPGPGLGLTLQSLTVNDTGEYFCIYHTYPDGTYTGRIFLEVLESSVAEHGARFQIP

T2: recombinant human TIGIT (human, UniProt Q495A1 22-141, limits assumed)
T2 construct: also called T cell immunoreceptor with Ig and ITIM domains
T2 sequence (looked up): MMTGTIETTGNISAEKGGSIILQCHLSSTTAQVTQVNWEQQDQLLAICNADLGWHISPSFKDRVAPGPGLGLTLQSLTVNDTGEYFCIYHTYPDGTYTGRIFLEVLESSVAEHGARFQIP

T3: human TIGIT-Fc (human, UniProt Q495A1 22-141, limits assumed)
T3 construct: not shown: Fc; not described
T3 sequence (looked up): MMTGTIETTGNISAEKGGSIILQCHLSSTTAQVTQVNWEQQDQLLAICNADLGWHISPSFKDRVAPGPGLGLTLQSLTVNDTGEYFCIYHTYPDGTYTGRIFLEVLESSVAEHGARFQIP


How the values were obtained:
TIGIT [1] = biological target: T1, TIGIT; assay: ELISA; design: unit not given here
TIGIT [2] = biological target: T1, TIGIT; assay: SPR (Carterra)
recombinant human TIGIT = biological target: T2, recombinant human TIGIT; assay: SPR (Carterra), average
Experimental: Binding affinities of VHH-Fc proteins to recombinant human TIGIT were measured by SPR using a Carterra instrument (Table 10A). […] Average values reported from measurements from 1-2 samples.

human TIGIT-Fc = biological target: T3, human TIGIT-Fc; assay: CD155 competition ELISA, single point; also: test concentration or dose not given here
Experimental: TIGIT/CD155 inhibition of VHH-Fcs were assessed using an ELISA assay (Table 10B). Briefly, human TIGIT-Fc was coated on a plate & then incubated with VHH-Fcs and human CD155-biotin. Bound CD155-biotin was detected using a streptavidin-HRP conjugate visualized with TMB. Strong inhibitors from the single point screen were titrated to determine EC50 (Table 10C).

TIGIT [3] = biological target: T1, TIGIT; assay: SPR (Carterra); remark: listed apart in the source
TIGIT [4] = biological target: T1, TIGIT; assay: TIGIT:CD155 blockade assay, competitor CD155

| ELISA (TIGIT [1]) | Kd (TIGIT [2]) | koff (TIGIT [2]) | kon (TIGIT [2]) | Binder | further results |
| --- | --- | --- | --- | --- | --- |
| 10.2 | 392 nM | 0.0405 s⁻¹ | 103000 M⁻¹ s⁻¹ | TIGIT-211-40 (antibody, V domains shown) VH: EVQLLESGGGLVQPGGSLRLSCAASGFTFSRYAMNWVRQAPGKGLEWVSEISPSGKKKYYADSVKGRFTISRDNSKNTLYLQMNSLRAEDTAVYYCAKSSFDKYNFDYWGQGTLVTVSS VL: DIQMTQSPSSLSASVGDRVTITCRASQDIGNFLNWYQQKPGKAPKLLIYRTSWLQSGVPSRFSGSGSGTDFTLTISSLQPEDFATYYCQQRSSYPPTFGQGTKVEIK |  |
|  |  |  |  | TIGIT-SC210 (Fc fusion, VHH-Fc) VHH: EVQLVESGGGLVQPGGSLRLSCAASGFLFDSYWMVWFRQAPGKEREFVAAIWRSGTLKAYADSVKGRFTISADNSKNTAYLQMNSLKPEDTAVYYCARDHRAMVAPFDYWGQGTLVTVSS | Kd (recombinant human TIGIT): 6330 nM; koff (recombinant human TIGIT): 0.258 s⁻¹; kon (recombinant human TIGIT): 40700 M⁻¹ s⁻¹; OD (450 nm) (human TIGIT-Fc): 0.516 OD |
| 8 | 2230 nM | 0.0681 s⁻¹ | 30500 M⁻¹ s⁻¹ | TIGIT-211-30 (antibody, V domains shown) VH: EVQLLESGGGLVQPGGSLRLSCAASGFTFKSYGMHWVRQAPGKGLEWVSAISGSGGGTSYADSVKGRFTISRDNSKNTLYLQMNSLRAEDTAVYYCARAGQWLGDFDYWGQGTLVTVSS VL: DIQMTQSPSSLSASVGDRVTITCRASQPIGPDLLWYQQKPGKAPKLLIYRKSNRPSGVPSRFSGSGSGTDFTLTISSLQPEDFATYYCQQSYSTPYTFGQGTKVEIK |  |
| 10.7 | 96.5 nM | 0.0335 s⁻¹ | 347000 M⁻¹ s⁻¹ | TIGIT-211-51 (antibody, V domains shown) VH: EVQLLESGGGLVQPGGSLRLSCAASGFTFHKYGMAWVRQAPGKGLEWVSTISSGGGYTYYPDSVKGRFTISRDNSKNTLYLQMNSLRAEDTAVYYCARDTYLHFDYWGQGTLVTVSS VL: DIQMTQSPSSLSASVGDRVTITCRASQGVRTSLAWYQQKPGKAPKLLIYAKNNRPSGVPSRFSGSGSGTDFTLTISSLQPEDFATYYCQQSYSAPYTFGQGTKVEIK |  |
|  |  |  |  | TIGIT-SC196 (Fc fusion, VHH-Fc) VHH: EVQLVESGGGLVQPGGSLRLSCAASGFAFSSDWMGWFRQAPGKEREWVASVLRGGYTWYADSVKGRFTISADNSKNTAYLQMNSLKPEDTAVYYCATEGLGYWGQGTLVTVSS | Kd (recombinant human TIGIT): 112000 nM; koff (recombinant human TIGIT): 0.00692 s⁻¹; kon (recombinant human TIGIT): 143 M⁻¹ s⁻¹; OD (450 nm) (human TIGIT-Fc): 0.374 OD |
| 9.7 | 268 nM | 0.000832 s⁻¹ | 3110 M⁻¹ s⁻¹ | TIGIT-211-18 (antibody, V domains shown) VH: EVQLLESGGGLVQPGGSLRLSCAASGFTFGTIPMSWVRQAPGKGLEWVGVIWGGGGTYYADSVKGRFTISRDNSKNTLYLQMNSLRAEDTAVYYCAKAHGNPVSDLSFDYWGQGTLVTVSS VL: DIQMTQSPSSLSASVGDRVTITCSGDKLGDKYTSWYQQKPGKAPKLLIYHTSRLQDGVPSRFSGSGSGTDFTLTISSLQPEDFATYYCQQSYNLPLTFGQGTKVEIK |  |
| 7.2 | 63.1 nM | 0.0016 s⁻¹ | 25400 M⁻¹ s⁻¹ | TIGIT-211-28 (antibody, V domains shown) VH: EVQLLESGGGLVQPGGSLRLSCAASGFTFSTYAMSWVRQAPGKGLEWVSEISPSGGYTYYADSVKGRFTISRDNSKNTLYLQMNSLRAEDTAVYYCAKVKLGGGPNFDYWGQGTLVTVSS VL: DIQMTQSPSSLSASVGDRVTITCQGASLRNYYASWYQQKPGKAPKLLIYDTSKVASGVPSRFSGSGSGTDFTLTISSLQPEDFATYYCFQGSHIPYTFGQGTKVEIK |  |
| 8 | 66.1 nM | 0.000643 s⁻¹ | 9740 M⁻¹ s⁻¹ | TIGIT-211-42 (antibody, V domains shown) VH: EVQLLESGGGLVQPGGSLRLSCAASGFTFNHYGMGWVRQAPGKGLEWVSYISSSGSSTYYADSVKGRFTISRDNSKNTLYLQMNSLRAEDTAVYYCAKGWLGNFDYWGQGTLVTVSS VL: DIQMTQSPSSLSASVGDRVTITCRASQGVRTSLAWYQQKPGKAPKLLIYGKNIRPSGVPSRFSGSGSGTDFTLTISSLQPEDFATYYCQQSYSFPLTFGQGTKVEIK |  |
|  |  |  |  | TIGIT-471-001 (antibody, V domains shown, Variable domains only) VH: EVQLLESGGGLVQPGGSLRLSCAASGFTFSNYGVSWVRQAPGKGLEWVGYINPSRGYTYYADSVKGRFTISRDNSKNTLYLQMNSLRAEDTAVYYCARSYGGGFDYWGQGTLVTVSS VL: DIQMTQSPSSLSASVGDRVTITCRASQTIERRLNWYQQKPGKAPKLLIYDASSLHTGVPSRFSGSGSGTDFTLTISSLQPEDFATYYCQQSYIIPPTFGQGTKVEIK | Kd (TIGIT [3]): 61.3 nM; RU (TIGIT [3]): 175 RU; koff (TIGIT [3]): 0.022 s⁻¹; kon (TIGIT [3]): 359000 M⁻¹ s⁻¹; IC50 (TIGIT [4]): 9.6 nM |
| 8.8 | 105 nM | 0.00125 s⁻¹ | 11900 M⁻¹ s⁻¹ | TIGIT-211-45 (antibody, V domains shown) VH: EVQLLESGGGLVQPGGSLRLSCAASGFTFRRYVMGWVRQAPGKGLEWVSEISPSGGYTYYADSVKGRFTISRDNSKNTLYLQMNSLRAEDTAVYYCAKRWTFNTAFDYWGQGTLVTVSS VL: DIQMTQSPSSLSASVGDRVTITCRASQSIRRYLNWYQQKPGKAPKLLIYDASNLQSGVPSRFSGSGSGTDFTLTISSLQPEDFATYYCQQSYDFPRTFGQGTKVEIK |  |
| 13.2 | 472 nM | 0.126 s⁻¹ | 266000 M⁻¹ s⁻¹ | TIGIT-211-17 (antibody, V domains shown) VH: EVQLLESGGGLVQPGGSLRLSCAASGFTFAEYSMNWVRQAPGKGLEWVSWISPHGALTYYADSVKGRFTISRDNSKNTLYLQMNSLRAEDTAVYYCARSYGGGFDYWGQGTLVTVSS VL: DIQMTQSPSSLSASVGDRVTITCRASQTIERRLNWYQQKPGKAPKLLIYQNDKRPSGVPSRFSGSGSGTDFTLTISSLQPEDFATYYCQQSYSIPPTFGQGTKVEIK |  |
|  |  |  |  | TIGIT-471-019 (antibody, V domains shown, Variable domains only) VH: EVQLLESGGGLVQPGGSLRLSCAASGFTFSNYGVSWVRQAHGKGLEWVVYINPSRGYTYYADSVKGRFSISRDNSKNTLYLQMNSLRAEDTAVYYCARSYGGGFDYWGQGTLVTVSS VL: DIQMTQSPSSLSASVGDRVTITCRASQTIERRLNWYQQKPGKAPKLLIYDASSLHTGVPSRFSGSGSGTDFTLTISSLQPEDFATYYCQQSYIIPPTFGQGTKVEIK | Kd (TIGIT [3]): 164 nM; RU (TIGIT [3]): 156 RU; koff (TIGIT [3]): 0.0565 s⁻¹; kon (TIGIT [3]): 344000 M⁻¹ s⁻¹; IC50 (TIGIT [4]): 13.6 nM |
| 8.8 | 605 nM | 0.0406 s⁻¹ | 67100 M⁻¹ s⁻¹ | TIGIT-211-35 (antibody, V domains shown) VH: EVQLLESGGGLVQPGGSLRLSCAASGFTFNAYPMTWVRQAPGKGLEWVSAITGSGGSTYYADSVKGRFTISRDNSKNTLYLQMNSLRAEDTAVYYCARDGSYSSSWYGYWGQGTLVTVSS VL: DIQMTQSPSSLSASVGDRVTITCSGNKLGDKYASWYQQKPGKAPKLLIYRTSWLQSGVPSRFSGSGSGTDFTLTISSLQPEDFATYYCVARAVRGNPHVLFGQGTKVEIK |  |
| 12 | 819 nM | 0.00117 s⁻¹ | 1430 M⁻¹ s⁻¹ | TIGIT-211-43 (antibody, V domains shown) VH: EVQLLESGGGLVQPGGSLRLSCAASGFTFYDYTMDWVRQAPGKGLEWVSAISGSGGGTSYADSVKGRFTISRDNSKNTLYLQMNSLRAEDTAVYYCARRHWPGGFDYWGQGTLVTVSS VL: DIQMTQSPSSLSASVGDRVTITCRASQSIRRYLNWYQQKPGKAPKLLIYWASDRESGVPSRFSGSGSGTDFTLTISSLQPEDFATYYCQQSFSTPLTFGQGTKVEIK |  |
| 7.9 | 3040 nM | 0.0622 s⁻¹ | 20400 M⁻¹ s⁻¹ | TIGIT-211-69 (antibody, V domains shown) VH: EVQLLESGGGLVQPGGSLRLSCAASGFTFGNYRMTWVRQAPGKGLEWVGVIWGGGGTYYADSVKGRFTISRDNSKNTLYLQMNSLRAEDTAVYYCARIFSYALDYWGQGTLVTVSS VL: DIQMTQSPSSLSASVGDRVTITCRASQNIRSYLNWYQQKPGKAPKLLIYGASTLQSGVPSRFSGSGSGTDFTLTISSLQPEDFATYYCQQSYENPLTFGQGTKVEIK |  |
|  |  |  |  | TIGIT-SC157 (Fc fusion, VHH-Fc) VHH: EVQLVESGGGLVQPGGSLRLSCAASGFTFSPSWMGWFRQAPGKEREWVASVLRGGYTWYADSVKGRFTISADNSKNTAYLQMNSLKPEDTAVYYCTTEGYDFWSGYYDYWGQGTLVTVSS | Kd (recombinant human TIGIT): 302000 nM; koff (recombinant human TIGIT): 0.0054 s⁻¹; OD (450 nm) (human TIGIT-Fc): 0.414 OD |
|  |  |  |  | TIGIT-SC138 (Fc fusion, VHH-Fc) VHH: EVQLVESGGGLVQPGGSLRLSCAASGFTLENNMMGWFRQAPGKGREFVAAISRSGTLKAYADSVKGRFTISADNSKNTAYLQMNSLKPEDTAVYYCARVRYYYDSSGYFFWFDLWGQGTLVTVSS | Kd (recombinant human TIGIT): 7300 nM; koff (recombinant human TIGIT): 0.363 s⁻¹; kon (recombinant human TIGIT): 49700 M⁻¹ s⁻¹; OD (450 nm) (human TIGIT-Fc): 0.393 OD |
| 12.4 | 3400 nM | 0.105 s⁻¹ | 30800 M⁻¹ s⁻¹ | TIGIT-211-57 (antibody, V domains shown) VH: EVQLLESGGGLVQPGGSLRLSCAASGLTFPNYGMGWVRQAPGKGLEWVSAISREGRATYYADSVKGRFTISRDNSKNTLYLQMNSLRAEDTAVYYCARVIAAAGAFDYWGQGTLVTVSS VL: DIQMTQSPSSLSASVGDRVTITCRSSQSLVHSTGNTYLHWYQQKPGKAPKLLIYGKNIRPSGVPSRFSGSGSGTDFTLTISSLQPEDFATYYCQQSYTTPWTFGQGTKVEIK |  |
